The text below walks through data of patent publication CN109988240A (ANYUAN BIOTECHNOLOGY SHANGHAI CO LTD; PHARMAB SHANGHAI …, dated 2019).

Assay [1] concerns the target T1, 人GPC-3-His(北京义翘神州生物) (human, UniProt P51654 25-559).
T1 construct: Bought His-tagged protein, coupled to Ni-NTA sensors in the BLI assay; not shown: His tag
In words: affinity and kinetics of Table 2 (table not shown; method not named here, taken as BLI of Example 3.2).

Assay [2] concerns the target T2, 人GPC-3抗原 (磷脂酰肌醇蛋白聚糖3, Glypican-3) (human, UniProt P51654 25-559, limits assumed).
T2 construct: The immunogen was bought from Sino Biological (北京义翘神州生物); also called GPC-3蛋白
In words: indirect ELISA, GPC-3 antigen coated at 0.2 μg/ml. For orientation: In an ELISA, binding on a coated surface is turned into a signal by an enzyme label.

Assay [3] has as its target T1, 人GPC-3-His(北京义翘神州生物). In words: BLI (ForteBio Octet), human GPC-3-His on Ni-NTA sensor. (BLI is a label-free optical method that tracks binding on a fibre tip over time.)
Assay [4] addresses T1, 人GPC-3-His(北京义翘神州生物). In words: BLI (ForteBio Octet), human GPC-3-His on Ni-NTA sensor, antibody 3.125-100 nM.
In assay [5] the target is T2, 人GPC-3抗原 (磷脂酰肌醇蛋白聚糖3, Glypican-3). In words: competition ELISA on coated GPC-3 (0.1 μg/ml), competitor GPC-3 antibody-HRP.
Assay [6] shares this target. In words: indirect ELISA on coated GPC-3, goat anti-human IgG-HRP detection.

T2 sequence (P51654 25-559 limits assumed): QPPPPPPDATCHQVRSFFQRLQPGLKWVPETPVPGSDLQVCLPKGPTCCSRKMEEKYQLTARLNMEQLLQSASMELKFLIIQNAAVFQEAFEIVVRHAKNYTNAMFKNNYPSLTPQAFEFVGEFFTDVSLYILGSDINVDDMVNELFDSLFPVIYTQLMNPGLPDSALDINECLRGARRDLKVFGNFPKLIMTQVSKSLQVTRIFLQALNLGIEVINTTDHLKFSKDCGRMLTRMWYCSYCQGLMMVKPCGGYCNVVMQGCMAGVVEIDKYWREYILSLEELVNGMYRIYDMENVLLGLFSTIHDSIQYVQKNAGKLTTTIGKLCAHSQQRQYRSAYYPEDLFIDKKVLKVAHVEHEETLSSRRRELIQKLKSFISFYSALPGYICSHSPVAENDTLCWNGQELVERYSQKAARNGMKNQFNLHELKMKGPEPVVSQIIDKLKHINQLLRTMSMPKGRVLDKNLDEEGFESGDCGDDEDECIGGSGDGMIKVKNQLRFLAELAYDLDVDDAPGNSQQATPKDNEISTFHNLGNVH
T1 sequence (P51654 25-559 limits assumed): as above

B1: 人源化抗体AB13E3 (antibody, V domains shown)
VH: QVQLVQSGAEVKKPGASVKVSCKASGYTFTDYEMHWVKQAPGQGLEWIGAIDPQTGNTAFNQKFKGRVTLTRDKSSSTVYMELSSLRSEDTAVYYCTRFYSLTYWGQGTLVTVSS
VL: DVLMTQSPLSLPVTLGQPASISCRSSQSIVHSNGNTYLQWYLQRPGQSPKLLIYKVSNRFSGVPDRFSGSGSGTYFTLKISRVEAEDVGVYYCFQGSHFPYAFGGGTKVEIK
notes: Humanized from GPC3#4 by CDR grafting; detected with goat anti-human IgG
For orientation: Kd means the concentration at which binding is half-saturated. A lower Kd goes with a tighter complex. Molecule B1 had a Kd with 人GPC-3-His(北京义翘神州生物) [1] of less than 0.01 nM.

B2: 人源化抗体AB13E1 (antibody, V domains shown)
VH: QVQLVQSGAEVKKPGASVKVSCKASGYTFTDYEMHWVRQAPGQGLEWMGIIDPQTGNTSYAQKFQGRVTMTRDTSTSTVYMELSSLRSEDTAVYYCTRFYSLTYWGQGTLVTVSS
VL: DVVMTQSPLSLPVTLGQPASISCRSSQSIVHSNGNTYLNWFQQRPGQSPRRLIYKVSNRDSGVPDRFSGSGSGTDFTLKISRVEAEDVGVYYCFQGSHFPYAFGGGTKVEIK
notes: Humanized from GPC3#4 by CDR grafting
For the molecule B2, the Kd in the assay with 人GPC-3-His(北京义翘神州生物) [1] was less than 0.01 nM.

B3: 鼠单克隆抗体GPC3#4(杂交瘤细胞株DWX-1分泌) (antibody, V domains shown)
VH: QVQLQQSGAELVRPGAPVTLSCKASGYTFTDYEMHWVKQTPVNGLEWIGAIDPQTGNTAFNQKFKGKAILTADKSSSTAYMEVRSLTSEGSAVYYCTRFYSLTYWGQGTLVTVSA
VL: DVLMTQVPLSLPVSLGDQASISCRSSQSIVHSNGNTYLQWYLQKPGQSPKLLIYKVSNRFSGVPDRFSGSGSGTYFTLKISRVEAEDLGVYYCFQGSHFPYAFGGGTKLEIK
notes: Mouse antibody purified from hybridoma DWX-1; also called 鼠源抗体GPC3#4; 鼠单抗GPC3#4
Broadly, the EC50 is the concentration at which the effect is half-maximal. A higher EC50 goes with a need for much substance. The term koff denotes the first-order rate constant of dissociation. Read a low koff as slow dissociation. Usually kon stands for the rate constant with which the complex forms. The low end stands for slower complex formation, the high end for faster complex formation. In assay [2], B3 had an EC50 of roughly 0.01 µg/mL. The Kd with 人GPC-3-His(北京义翘神州生物) [3] is less than 0.01 nM. Further, in the assay with 人GPC-3-His(北京义翘神州生物) [4], the Kd worked out at 0.00107 nM, the koff worked out at 1e-07 s⁻¹ and the association rate constant (kon) worked out at 624000 M⁻¹ s⁻¹.

B4: 人源化抗体AB13E2 (antibody, V domains shown)
VH: QVQLVQSGAEVKKPGASVKVSCKASGYTFTDYEMHWVRQAPGQGLEWIGAIDPQTGNTSYAQKFQGRVTMTRDTSTSTVYMELSSLRSEDTAVYYCTRFYSLTYWGQGTLVTVSS
VL: DVVMTQSPLSLPVTLGQPASISCRSSQSIVHSNGNTYLNWFQQRPGQSPKLLIYKVSNRDSGVPDRFSGSGSGTDFTLKISRVEAEDVGVYYCFQGSHFPYAFGGGTKLEIK
notes: as for B2
As to B4, the Kd with 人GPC-3-His(北京义翘神州生物) [1] is less than 0.01 nM.

B5: 人源化抗体AB13E4 (antibody, V domains shown)
VH: QVQLVQSGAEVVKPGASVKLSCKASGYTFTDYEMHWVKQTPGQGLEWIGAIDPQTGNTAFNQKFKGRATLTRDKSSSTAYMEVSSLRSEGTAVYYCTRFYSLTYWGQGTLVTVSS
VL: DVLMTQSPLSLPVTLGQPASISCRSSQSIVHSNGNTYLQWYLQKPGQSPKLLIYKVSNRFSGVPDRFSGSGSGTYFTLKISRVEAEDVGVYYCFQGSHFPYAFGGGTKLEIK
notes: Humanized from GPC3#4 by resurfacing; detected with goat anti-human IgG
Turning to B5, the EC50 is 0.1 to 1 µg/mL in assay [5] and 0.001 to 0.01 µg/mL in assay [6]. The dissociation constant Kd with 人GPC-3-His(北京义翘神州生物) [1] is less than 0.01 nM.

B6: 人源化抗体AB13E5 (antibody, V domains shown)
VH: QVQLVQSGAEVKKPGASVTLSCKASGYTFTDYEMHWVRQAPGQGLEWMGIIDPQTGNTSYAQKFQGRVTMTRDTSTSTVYMELSSLRSEGSAVYYCTRFYSLTYWGQGTLVTVSS
VL: DVVMTQSPLSLPVTLGDQASISCRSSQSIVHSNGNTYLNWFQQRPGQSPRRLIYKVSNRDSGVPDRFSGSGSGTDFTLKISRVEAEDVGVYYCFQGSHFPYAFGGGTKVEIK
notes: as for B2
For B6, in the assay with 人GPC-3-His(北京义翘神州生物) [1], the Kd was less than 0.01 nM.
